Results as given in publication PMC7225057.
Read-outs that look alike come from different tables or passages of the source.

Columns and labels:
[1] = biological target: FITC-AM(37–52) [S45W/Q50W]; assay: fluorescence polarisation
[2] = biological target: FITC-AM(37–52) [S45W/Q50W]; assay: fluorescence polarisation; remark: listed apart in the source
FITC-sCT(22–32) (salmon) = assay: fluorescence polarisation
[3] = biological target: biotinylated sCT(1–32) [C1A/C7A] (salmon); assay: BLI
[4] = biological target: Endo H-treated CTR.38–141 N130D (MBP-free CTR ECD) (human); assay: fluorescence polarisation
[5] = biological target: Endo H-treated CTR.38–141 WT (MBP-free CTR ECD) (human); assay: fluorescence polarisation
[6] = biological target: Glycan-free CTR.38–141 WT (E. coli-produced, MBP-free CTR ECD) (human); assay: fluorescence polarisation
[7] = biological target: biotinylated sCT(1–32) [C1A/C7A] (salmon); assay: BLI; remark: listed apart in the source

Row | Kd [2] [nM] | pKD [2] | Kd (FITC-sCT(22–32) (salmon)) [nM] | pKD (FITC-sCT(22–32) (salmon)) | Substance | also measured
1 | 310 | 6.51 |  |  | RAMP1-CLR.29–144 WT (tethered RAMP1-CLR ECD fusion, CGRP receptor ECD) (from UniProt O60894 24-111; Q16602 29-144) | Kd [1]: 280 nM; pKD [1]: 6.56
2 |  |  | 380 | 6.43 | CTR.34–141 WT (MBP-free CTR ECD, glycosylated, no enzyme treatment) (domain or fragment) | 
3 |  |  | 2700 | 5.57 | Glycan-free CTR.38–141 WT (E. coli-produced, MBP-free CTR ECD) (domain or fragment) | Kd [7]: 10.8 µM; Kd [3]: 30.9 µM
4 | 1400 | 5.87 |  |  | RAMP1-CLR.29–144 WT, PNGase F-treated (deglycosylated) (from UniProt O60894 24-111; Q16602 29-144) (receptor) | 

The next lines start with the substance.

Row | Substance | Kd [2] [nM] | pKD [2] | Kd (FITC-sCT(22–32) (salmon)) [nM] | pKD (FITC-sCT(22–32) (salmon)) | also measured
5 | Endo H-treated CTR.38–141 WT (MBP-free CTR ECD) (domain or fragment) |  |  | 500 | 6.3 | kon [3]: 178000 M⁻¹ s⁻¹
6 | RAMP1-CLR.29–144 N123D (tethered RAMP1-CLR ECD fusion) (from UniProt O60894 24-111; Q16602 29-144) (receptor) | 740 | 6.13 |  |  | 
7 | salmon calcitonin sCT(22–32), unlabeled (peptide) |  |  |  |  | Ki [4]: 5.6 µM; pKI [4]: 5.26; Ki [5]: 1600 nM; pKI [5]: 5.81; Ki [6]: 11 µM; pKI [6]: 4.97
8 | Endo H-treated CTR.38–141 N130D (MBP-free CTR ECD) (domain or fragment) |  |  | 2000 | 5.7 | Kd [7]: 11.9 µM; Kd [3]: 12.4 µM
